This note sets out measurements from US11844843.

The Kd is the concentration at which binding is half-saturated. The kon is the second-order rate constant of association.

This assay concerns the target recombinant human TfR1 (transferrin receptor protein 1) (human) (UniProt P02786). As to the kind of experiment: Carterra LSA SPR, 25 C; IgG captured, hTfR1 as analyte; 1:1 fit.

Chain of recombinant human TfR1 (transferrin receptor protein 1) (human) (P02786 89-760 limits assumed): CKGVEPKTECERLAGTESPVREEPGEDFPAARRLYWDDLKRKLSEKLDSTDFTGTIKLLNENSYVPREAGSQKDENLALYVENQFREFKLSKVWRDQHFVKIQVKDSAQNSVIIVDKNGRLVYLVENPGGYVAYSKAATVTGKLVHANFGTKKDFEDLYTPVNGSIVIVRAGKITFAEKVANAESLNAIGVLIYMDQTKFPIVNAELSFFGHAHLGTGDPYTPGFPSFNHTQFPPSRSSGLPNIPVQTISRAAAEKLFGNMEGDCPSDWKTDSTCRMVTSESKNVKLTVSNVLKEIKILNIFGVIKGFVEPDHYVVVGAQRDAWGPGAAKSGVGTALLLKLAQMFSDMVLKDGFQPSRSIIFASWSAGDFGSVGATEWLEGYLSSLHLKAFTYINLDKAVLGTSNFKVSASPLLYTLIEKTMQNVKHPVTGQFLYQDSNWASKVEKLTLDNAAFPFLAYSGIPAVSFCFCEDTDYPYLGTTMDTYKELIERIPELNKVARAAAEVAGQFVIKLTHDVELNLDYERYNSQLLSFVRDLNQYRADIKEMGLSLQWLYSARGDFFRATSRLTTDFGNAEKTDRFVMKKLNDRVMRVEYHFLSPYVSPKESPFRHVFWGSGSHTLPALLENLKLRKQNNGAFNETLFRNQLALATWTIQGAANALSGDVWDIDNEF

For the substance OKT9 mIgG (control anti-TfR1 antibody), the Kd came to 0.536 nM and the kon came out at 774000 M⁻¹ s⁻¹.
